Experimental data reported in patent publication US20050251885A1, “Method for enhancing yield of recombinant protein production from plants” (UNIVERSITE LAVAL, priority 2002, published 2005).

B1: α-1 antichymotrypsin: human serpin, inhibitor of chymotrypsin-like proteases (protein, UniProt P01011 24-423, looked up)
Alpha-1-antichymotrypsin: HPNSPLDEENLTQENQDRGTHVDLGLASANVDFAFSLYKQLVLKAPDKNVIFSPLSISTALAFLSLGAHNTTLTEILKGLKFNLTETSEAEIHQSFQHLLRTLNQSSDELQLSMGNAMFVKEQLSLLDRFTEDAKRLYGSEAFATDFQDSAAAKKLINDYVKNGTRGKITDLIKDLDSQTMMVLVNYIFFKAKWEMPFDPQDTHQSRFYLSKKKWVMVPMMSLHHLTIPYFRDEELSCTVVELKYTGNASALFILPDQDKMEEVEAMLLPETLKRWRDSLEFREIGELYLPKFSISRDYNLNDILLQLGIEEAFTSKADLSGITGARNLAVSQVVHKAVLDVFEEGTEASAATAVKITLLSALVETRTIVRFNRPFLMIIVPTDTQNIFFMSKVTNPKQA

Tested on: alfalfa leaf proteases (fraction #8)
Assay: Fibronectin proteolysis by alfalfa leaf Mono-Q fraction #8 with protease inhibitors, immunodetection
Type: biochemical, alfalfa (cultivar Saranac)
Settings: for proteolysis of fibronectin by the Mono-Q fraction in presence of inhibitor: 5 μl fraction #8, 350 ng fibronectin, 37° C., 15 min, FIG. 5B
Protocol: Firstly, a protein extract from alfalfa leaves was separated by chromatography to isolate a specific fraction containing the greatest protease activity. Alfalfa (cultivar Saranac) leaves were extracted by grinding in liquid nitrogen and resolubilization in 50 mM Tris-HCl, pH 6,8, containing 10 mM β-mercaptoethanol. The crude extract was centrifuged for 15 min at 10000 g at 4° C., and the supernatant was filtered through a 0.3 μm pore size filter. Fifteen mg of leaf proteins were then loaded on of a Mono-Q FPLC column (Pharmacia) equilibrated with extraction buffer. Proteins were eluted with a linear gradient of KCl (0 to 0.7 M) in extraction buffer, at a flow rate of 2 ml/min. Fractions of 500 μl were collected, and sample of each fraction was loaded onto a gelatin/PAGE gel (FIG. 5A). Fraction #8, which caused the highest proteolysis of gelatin in gel, was use to assess the protective effect of α-1 antichyinotrypsin.
Secondly, the identified fraction #8 was used in conjunction with various protease inhibitors to identify potential candidates for the inhibition of fibronectin proteolysis. In the experiment illustrated in FIG. 5B, 5 μl of fraction #8 was mixed with 350 ng of fibronectin and incubated at 37° C. for 15 min, in the presence of 2 μl H2O (lane 2), 2 μl of 10 mM chymostatin (lane 3) or 2 μl α-1 antichymotrypsin (lane 4). The control (lane 1) contained 5 μl extraction of buffer instead of alfalfa proteases. The reaction was stopped after 15 min. and fibronectin was immunodetected as in FIG. 1C. […] Note that both protein (α-1 antichymotrypsin) and chemical (chymostatin) molecules were efficient to decrease degradation of fibronectin.

Row | Molecule | proteolysis of fibronectin by the Mono-Q fraction in presence of inhibitor | stability of fibronectin on inhibiting alfalfa proteases (FIG. 5)
1 | CC(C)C[C@H](NC(=O)[C@@H](NC(=O)N[C@@H](Cc1ccccc1)C(=O)O)[C@@H]1CCN=C(N)N1)C(=O)N[C@H](C=O)Cc1ccccc1 [chymostatin, reference compound] | prevented | –
2 | B1 | prevented | significantly increased
